Bridges are numbered along the chain shown (N, C = ends). [ ]: non-standard residue; d: D form. NMeW = CN[C@@H](Cc1c[nH]c2ccccc12)C(=O)O; 1Nal = N[C@@H](Cc1cccc2ccccc12)C(=O)O; NMeH = CN[C@@H](Cc1c[nH]cn1)C(=O)O; AEA = NCCOCC(=O)O; βAla = NCCC(=O)O; Sar = CNCC(=O)O
B1: Ac-CADWVCY-[1-Nal]-H-[b-Ala]-FG-NH2 (peptide)
peptide: Ac-CADWVCY[1Nal]H[βAla]FG-NH2
modifications: disulfide 1-6
SMILES: CC(=O)N[C@H]1CSSC[C@@H](C(=O)N[C@@H](Cc2ccc(O)cc2)C(=O)N[C@@H](Cc2cccc3ccccc23)C(=O)N[C@@H](Cc2c[nH]cn2)C(=O)NCCC(=O)N[C@@H](Cc2ccccc2)C(=O)NCC(N)=O)NC(=O)[C@H](C(C)C)NC(=O)[C@H](Cc2c[nH]c3ccccc23)NC(=O)[C@H](CC(=O)O)NC(=O)[C@H](C)NC1=O
B2: Ac-CADWVCY-[1-Nal]-[(D)Ala]-TFG-NH2 (peptide)
peptide: Ac-CADWVCY[1Nal][dA]TFG-NH2
modifications: disulfide 1-6
SMILES: CC(=O)N[C@H]1CSSC[C@@H](C(=O)N[C@@H](Cc2ccc(O)cc2)C(=O)N[C@@H](Cc2cccc3ccccc23)C(=O)N[C@H](C)C(=O)N[C@H](C(=O)N[C@@H](Cc2ccccc2)C(=O)NCC(N)=O)[C@@H](C)O)NC(=O)[C@H](C(C)C)NC(=O)[C@H](Cc2c[nH]c3ccccc23)NC(=O)[C@H](CC(=O)O)NC(=O)[C@H](C)NC1=O
B3: Ac-CADWVCY-[1-Nal]-H-[(D)Ala]-FG-NH2 (peptide)
peptide: Ac-CADWVCY[1Nal]H[dA]FG-NH2
modifications: disulfide 1-6
SMILES: CC(=O)N[C@H]1CSSC[C@@H](C(=O)N[C@@H](Cc2ccc(O)cc2)C(=O)N[C@@H](Cc2cccc3ccccc23)C(=O)N[C@@H](Cc2c[nH]cn2)C(=O)N[C@H](C)C(=O)N[C@@H](Cc2ccccc2)C(=O)NCC(N)=O)NC(=O)[C@H](C(C)C)NC(=O)[C@H](Cc2c[nH]c3ccccc23)NC(=O)[C@H](CC(=O)O)NC(=O)[C@H](C)NC1=O
B4: Ac-CADWVCY-[1-Nal]-FTFG-NH2 (peptide)
peptide: Ac-CADWVCY[1Nal]FTFG-NH2
modifications: disulfide 1-6
SMILES: CC(=O)N[C@H]1CSSC[C@@H](C(=O)N[C@@H](Cc2ccc(O)cc2)C(=O)N[C@@H](Cc2cccc3ccccc23)C(=O)N[C@@H](Cc2ccccc2)C(=O)N[C@H](C(=O)N[C@@H](Cc2ccccc2)C(=O)NCC(N)=O)[C@@H](C)O)NC(=O)[C@H](C(C)C)NC(=O)[C@H](Cc2c[nH]c3ccccc23)NC(=O)[C@H](CC(=O)O)NC(=O)[C@H](C)NC1=O
B5: Ac-CQTWQCYWR-[Sarc]-NG-[AEA]-[(D)-Lys]-NH2 (peptide)
peptide: Ac-CQTWQCYWR[Sar]NG[AEA][dK]-NH2
modifications: disulfide 1-6
SMILES: CC(=O)N[C@H]1CSSC[C@@H](C(=O)N[C@@H](Cc2ccc(O)cc2)C(=O)N[C@@H](Cc2c[nH]c3ccccc23)C(=O)N[C@@H](CCCNC(=N)N)C(=O)N(C)CC(=O)N[C@@H](CC(N)=O)C(=O)NCC(=O)NCCOCC(=O)N[C@H](CCCCN)C(N)=O)NC(=O)[C@H](CCC(N)=O)NC(=O)[C@H](Cc2c[nH]c3ccccc23)NC(=O)[C@H]([C@@H](C)O)NC(=O)[C@H](CCC(N)=O)NC1=O
B6: Hy-CADWVCY-[1-Nal]-[N-Me-His]-TF-OH (peptide)
peptide: H-CADWVCY[1Nal][NMeH]TF-OH
modifications: disulfide 1-6
SMILES: CC(C)[C@@H]1NC(=O)[C@H](Cc2c[nH]c3ccccc23)NC(=O)[C@H](CC(=O)O)NC(=O)[C@H](C)NC(=O)[C@@H](N)CSSC[C@@H](C(=O)N[C@@H](Cc2ccc(O)cc2)C(=O)N[C@@H](Cc2cccc3ccccc23)C(=O)N(C)[C@@H](Cc2c[nH]cn2)C(=O)N[C@H](C(=O)N[C@@H](Cc2ccccc2)C(=O)O)[C@@H](C)O)NC1=O

Molecular target: T1, IL23R_huFC (human, UniProt Q5VWK5 24-353)
T1 sequence (looked up): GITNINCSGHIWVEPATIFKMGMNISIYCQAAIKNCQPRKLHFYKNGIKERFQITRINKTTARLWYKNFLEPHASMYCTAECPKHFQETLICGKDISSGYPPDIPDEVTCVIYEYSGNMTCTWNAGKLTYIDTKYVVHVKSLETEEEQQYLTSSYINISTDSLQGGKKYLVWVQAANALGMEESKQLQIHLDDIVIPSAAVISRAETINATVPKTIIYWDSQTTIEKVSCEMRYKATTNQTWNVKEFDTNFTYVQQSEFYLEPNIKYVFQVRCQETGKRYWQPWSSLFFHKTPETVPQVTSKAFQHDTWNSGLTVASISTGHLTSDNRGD
Assay: IL23-IL23R competitive ELISA

Binder | IC50 [nM]
H-CADWVCY[1Nal]HTF-OH (disulfide 1-6 (inferred)) [Hy-CADWVCY-[1-Nal]-HTF-OH] | > 1000
CXDWVCYXHTF ([Sarc]; [1-Nal]; disulfide) [Hy-C-[Sarc]-DWVCY-[1-Nal]-HTF-OH] | > 1000
H-CKDWKCYWHIYG-NH2 (disulfide 1-6 (inferred)) [Hy-CKDWKCYWHIYG-NH2] | > 1000
H-CADWCCYWCTFG-NH2 (disulfide (positions not given here); also: disulfide pairing not given here) [Hy-CADWCCYWCTFG-NH2, listing 1 of 3 here] | > 1000
H-ACDWCCYWCTFG-NH2 (disulfide (positions not given here); also: disulfide pairing not given here) [Hy-ACDWCCYWCTFG-NH2] | > 1000
CADWVCYXHTFG (not fully specified; [1-BIP]; -NH2; disulfide) [Hy-CADWVCY-[1-BIP]-HTFG-NH2] | > 1000
B1 | > 1000
B2 | > 1000
B3 | > 1000
B4 | > 1000
H-CADWCCYWCTFG-NH2 (disulfide (positions not given here); also: disulfide pairing not given here) [Hy-CADWCCYWCTFG-NH2, listing 2 of 3 here] | > 1000
H-CAD[NMeW]VCY[1Nal]HTF-OH (disulfide 1-6 (inferred)) [Hy-CAD-[N-Me-Trp]-VCY-[1-Nal]-HTF-OH] | > 1000
H-CADWVCYWHT-NH2 (disulfide 1-6 (inferred)) [Hy-CADWVCYWHT-NH2] | > 1000
CADXVCYWHTFG (not fully specified; [1-BIP]; -NH2; disulfide) [Hy-CAD-[1-BIP]-VCYWHTFG-NH2] | > 1000
CADXVCYWHTFG ([2-Nal]; -NH2; disulfide) [Hy-CAD-[2-Nal]-VCYWHTFG-NH2] | > 1000
H-CHTWVCYWHEFS-NH2 (disulfide 1-6 (inferred)) [Hy-CHTWVCYWHEFS-NH2] | > 1000
CADWXCYXHTF ([Sarc]; [1-Nal]; disulfide) [Hy-CADW-[Sarc]-CY-[1-Nal]-HTF-OH] | > 1000
H-CADWVCYWHTF-NH2 (disulfide 1-6 (inferred)) [Hy-CADWVCYWHTF-NH2] | > 1000
H-CADWVCY[1Nal]HT[dF]-OH (disulfide 1-6 (inferred)) [Hy-CADWVCY-[1-Nal]-HT-[(D)Phe]-OH] | > 1000
CADWVCYXHTFX ([1-Nal]; [Sarc]; disulfide) [Hy-CADWVCY-[1-Nal]-HTF-[Sarc]-OH] | > 1000

Binder | IC50 [nM]
H-CADWCCYWCTFG-NH2 (disulfide (positions not given here); also: disulfide pairing not given here) [Hy-CADWCCYWCTFG-NH2, listing 3 of 3 here] | > 1000
H-CQSWECYWHYYG-NH2 (disulfide 1-6 (inferred)) [Hy-CQSWECYWHYYG-NH2] | > 1000
H-AADWCAYWCTFG-NH2 (disulfide 5-9 (inferred)) [Hy-AADWCAYWCTFG-NH2] | > 1000
H-ACDWVCYWHTFG-NH2 (disulfide 2-6 (inferred)) [Hy-ACDWVCYWHTFG-NH2] | > 1000
H-CTDWVCYWHEYS-NH2 (disulfide 1-6 (inferred)) [Hy-CTDWVCYWHEYS-NH2] | > 1000
CADWVCYXHTFG ([Tic]; -NH2; disulfide) [Hy-CADWVCY[Tic]-HTFG-NH2] | > 1000
H-CGNWECYWHVYG-NH2 (disulfide 1-6 (inferred)) [Hy-CGNWECYWHVYG-NH2] | > 1000
H-CSDWRCYWHVFG-NH2 (disulfide 1-6 (inferred)) [Hy-CSDWRCYWHVFG-NH2] | > 1000
H-CRTWVCYWHVFG-NH2 (disulfide 1-6 (inferred)) [Hy-CRTWVCYWHVFG-NH2] | > 1000
H-CQTWVCYWHTYG-NH2 (disulfide 1-6 (inferred)) [Hy-CQTWVCYWHTYG-NH2] | > 1000
KCADWVCYWHTFG (Ac-; [(D)Lys]; disulfide) [Ac-[(D)Lys]-CADWVCYWHTFG-OH] | > 1000
Ac-[dK]SCADWVCYWHTFG-OH (disulfide 3-8 (inferred)) [Ac-[(D)Lys]-SCADWVCYWHTFG-OH] | > 1000
KACADWVCYWHTFG (Ac-; [(D)Lys]; [β-Ala]; disulfide) [Ac-[(D)Lys]-[β-Ala]-CADWVCYWHTFG-OH] | > 1000
H-[βAla]SCADWVCYWHTFG-OH (disulfide 3-8 (inferred)) [Hy-[β-Ala]-SCADWVCYWHTFG-OH] | > 1000
H-CSDWECYWHIFG-NH2 (disulfide 1-6 (inferred)) [Hy-CSDWECYWHIFG-NH2] | > 1000
H-CETWECYWHSFS-NH2 (disulfide 1-6 (inferred)) [Hy-CETWECYWHSFS-NH2] | > 1000
CADXVCYWHTFG ([1-Nal]; -NH2; disulfide) [Hy-CAD-[1-Nal]-VCYWHTFG-NH2] | > 1000
CADXVCYWHTFG ([Tic]; -NH2; disulfide) [Hy-CAD-[Tic]-VCYWHTFG-NH2] | > 1000
B5 | > 1000
B6 | > 1000

Source: patent US20190300590A1 (PROTAGONIST THERAPEUTICS, published 2019)
